Consider 3 molecules from article PMC6797804, “Histone H3K23-specific acetylation by MORF is coupled to H3K14 acylation” (Nature Communications, 2019).

In experiment [1] the target is T1, MORF DPF domain (residues 211–322) F287A (human, UniProt Q8WYB5 211-322, F287A).
T1 sequence (looked up): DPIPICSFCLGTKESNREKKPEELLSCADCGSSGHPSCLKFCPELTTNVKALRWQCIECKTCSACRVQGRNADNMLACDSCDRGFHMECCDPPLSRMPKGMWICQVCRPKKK
Nature of the experiment: cell-based or functional assay.

The target in experiment [2] is T2, MORF DPF domain (residues 211–322), wild type (human, UniProt Q8WYB5 211-322).
T2 construct: MORF (KAT6B) double PHD finger (DPF), residues 211–322; The methods say the GST tag was either cleaved with thrombin or left on; also called WT MORFDPF; DPF domain of MORF; source: E. coli Rosetta2 (DE3) pLysS, purified (glutathione Sepharose 4B, size exclusion); unlabeled or 15N-labeled
T2 sequence (looked up): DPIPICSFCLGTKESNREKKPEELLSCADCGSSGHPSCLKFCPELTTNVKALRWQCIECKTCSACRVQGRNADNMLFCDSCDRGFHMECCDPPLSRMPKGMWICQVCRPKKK
In words: other fluorescence titration; tryptophan fluorescence, 25 °C; 0.8–2 µM MORFDPF in PBS pH 6.5 with 5 mM DTT, increasing concentrations of H3 peptides (residues 1–19); excitation 295 nm. To be noted: both partners purified.

Experiment [3] has as its target T3, MORF DPF domain (residues 211–322) F218A (human, UniProt Q8WYB5 211-322, F218A).
T3 construct: MORF (KAT6B) double PHD finger (DPF), residues 211–322; also called MORFDPF F218A mutant; source: E. coli Rosetta2 (DE3) pLysS, purified (glutathione Sepharose 4B, size exclusion)
T3 sequence (looked up): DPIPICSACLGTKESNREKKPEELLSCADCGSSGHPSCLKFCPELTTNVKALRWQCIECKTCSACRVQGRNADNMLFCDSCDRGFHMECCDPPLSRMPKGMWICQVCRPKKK
The experiment is described as above. The following applies: both partners purified.

Experiment [4] deals with T1, MORF DPF domain (residues 211–322) F287A. In words: NMR titration; 1H,15N HSQC at 298 K; H3 peptides (residues 1–19) titrated into 0.1–0.25 mM 15N-labeled WT or mutated MORFDPF in 1×PBS pH 6.5, 5 mM DTT, 8–10% D2O. The following applies: both partners purified.

Ends that are not written are not given here. * marks the point of attachment. Crotonyl(E) = C/C=C/C(=O)*; Butyryl = CCCC(=O)*

B1: histone H3K14cr peptide (residues 1–19 of H3) (peptide, UniProt P68431 2-20, looked up)
peptide: ARTKQTARKSTGGK(Crotonyl(E))APRKQ
notes: histone H3 N-terminal tail, residues 1–19; source: synthetic peptide
A word on the Kd: it is the concentration at which binding is half-saturated. As to B1, in experiment [1], the “HAT activity of the MORFN F287A complex against the wild-type MORFN complex on H3K14cr peptide (residues 1–29), liquid HAT assay” value was found to be 2 fold. Moreover, the Kd in experiment [2] amounted to 700 nM. Also, the binding result in experiment [3] is reported as “binds”.

B2: unmodified histone H3 peptide (residues 1–19 of H3) (peptide, UniProt P68431 2-20, looked up)
peptide: ARTKQTARKSTGGKAPRKQ
notes: as for B1
In the case of B2, the “fold decrease in binding against the WT protein” value in experiment [4] is approximately 1000 fold.

B3: histone H3K14bu peptide (residues 1–19 of H3) (peptide, UniProt P68431 2-20, looked up)
peptide: ARTKQTARKSTGGK(Butyryl)APRKQ
notes: as for B1
In the case of B3, the binding result in experiment [3] is “binds”.
